Laboratory results published in US9816117B2, “Methods, reagents and cells for biosynthesizing compounds” (INVISTA North America S.á r.l., priority 2014, dated 2017).

B1: SEQ ID NO 9: Pseudomonas syringae ω-transaminase (Genbank Accession No. AAY39893.1) (protein, listed as Pseudomonas syringae)
chain: MSANNPQTLEWQALSSEHHLAPFSDYKQLKEKGPRIITRAEGVYLWDSEGNKILDGMSGLWCVAIGYGREELADAASKQMRELPYYNLFFQTAHPPVLELAKAISDIAPEGMNHVFFTGSGSEGNDTMLRMVRHYWALKGQPNKKTIISRVNGYHGSTVAGASLGGMTYMHEQGDLPIPGVVHIPQPYWFGEGGDMTPDEFGIWAAEQLEKKILELGVENVGAFIAEPIQGAGGVIVPPDSYWPKIKEILSRYDILFAADEVICGFGRTSEWFGSDFYGLRPDMMTIAKGLTSGYVPMGGLIVRDEIVAVLNEGGDFNHGFTYSGHPVAAAVALENIRILREEKIVERVRSETAPYLQKRLRELSDHPLVGEVRGVGLLGAIELVKDKTTRERYTDKGAGMICRTFCFDNGLIMRAVGDTMIIAPPLVISFAQIDELVEKARTCLDLTLAVLQG
B2: SEQ ID NO 12: Vibrio Fluvialis ω-transaminase (Genbank Accession No. AEA39183.1) (protein)
chain: MNKPQSWEARAETYSLYGFTDMPSLHQRGTVVVTHGEGPYIVDVNGRRYLDANSGLWNMVAGFDHKGLIDAAKAQYERFPGYHAFFGRMSDQTVMLSEKLVEVSPFDSGRVFYTNSGSEANDTMVKMLWFLHAAEGKPQKRKILTRWNAYHGVTAVSASMTGKPYNSVFGLPLPGFVHLTCPHYWRYGEEGETEEQFVARLARELEETIQREGADTIAGFFAEPVMGAGGVIPPAKGYFQAILPILRKYDIPVISDEVICGFGRTGNTWGCVTYDFTPDAIISSKNLTAGFFPMGAVILGPELSKRLETAIEAIEEFPHGFTASGHPVGCAIALKAIDVVMNEGLAENVRRLAPRFEERLKHIAERPNIGEYRGIGFMWALEAVKDKASKTPFDGNLSVSERIANTCTDLGLICRPLGQSVVLCPPFILTEAQMDEMFDKLEKALDKVFAEVA
modifications: Vibrio Fluvialis
B3: SEQ ID NO 7: Chromobacterium violaceum ω-transaminase (Genbank Accession No. AAQ59697.1) (protein, listed as Chromobacterium violaceum)
chain: MQKQRTTSQWRELDAAHHLHPFTDTASLNQAGARVMTRGEGVYLWDSEGNKIIDGMAGLWCVNVGYGRKDFAEAARRQMEELPFYNTFFKTTHPAVVELSSLLAEVTPAGFDRVFYTNSGSESVDTMIRMVRRYWDVQGKPEKKTLIGRWNGYHGSTIGGASLGGMKYMHEQGDLPIPGMAHIEQPWWYKHGKDMTPDEFGVVAARWLEEKILEIGADKVAAFVGEPIQGAGGVIVPPATYWPEIERICRKYDVLLVADEVICGFGRTGEWFGHQHFGFQPDLFTAAKGLSSGYLPIGAVFVGKRVAEGLIAGGDFNHGFTYSGHPVCAAVAHANVAALRDEGIVQRVKDDIGPYMQKRWRETFSRFEHVDDVRGVGMVQAFTLVKNKAKRELFPDFGEIGTLCRDIFFRNNLIMRACGDHIVSAPPLVMTRAEVDEMLAVAERCLEEFEQTLKARGLA
B4: SEQ ID NO 8: Pseudomonas aeruginosa ω-transaminase (Genbank Accession No. AAG08191.1) (protein, listed as Pseudomonas aeruginosa)
chain: MNARLHATSPLGDADLVRADQAHYMHGYHVFDDHRVNGSLNIAAGDGAYIYDTAGNRYLDAVGGMWCTNIGLGREEMARTVAEQTRLLAYSNPFCDMANPRAIELCRKLAELAPGDLDHVFLTTGGSTAVDTAIRLMHYYQNCRGKRAKKHVITRINAYHGSTFLGMSLGGKSADRPAEFDFLDERIHHLACPYYYRAPEGLGEAEFLDGLVDEFERKILELGADRVGAFISEPVFGSGGVIVPPAGYHRRMWELCQRYDVLYISDEVVTSFGRLGHFFASQAVFGVQPDIILTAKGLTSGYQPLGACIFSRRIWEVIAEPDKGRCFSHGFTYSGHPVACAAALKNIEIIEREGLLAHADEVGRYFEERLQSLRDLPIVGDVRGMRFMACVEFVADKASKALFPESLNIGEWVHLRAQKRGLLVRPIVHLNVMSPPLILTREQVDTVVRVLRESIEETVEDLVRAGHR

Legend:
[1] = ω-transaminase enzyme activity assay, reverse direction (6-aminohexanoate to adipate semialdehyde); type: biochemical; settings: cell free extract; 10 mM 6-aminohexanoate, 10 mM pyruvate; 25° C., 24 h; against empty vector control (FIG. 17)
Protocol: (§1) A nucleotide sequence encoding a His-tag was added to the genes from Chromobacterium violaceum, Pseudomonas aeruginosa, Pseudomonas syringae, Rhodobacter sphaeroides, and Vibrio fluvialis encoding the ω-transaminases of SEQ ID NOs: 7, 8, 9, 10 and 12, respectively (see FIG. 9) such that N-terminal HIS tagged w-transaminases could be produced. Each of the resulting modified genes was cloned into a pET21a expression vector under control of the T7 promoter and each expression vector was transformed into a BL21[DE3] E. coli host. The resulting recombinant E. coli strains were cultivated at 37° C. in a 250 mL shake flask culture containing 50 mL LB media and antibiotic selection pressure, with shaking at 230 rpm. Each culture was induced overnight at 16° C. using 1 mM IPTG.
(§2) The pellet from each induced shake flask culture was harvested via centrifugation. Each pellet was resuspended and lysed via sonication. The cell debris was separated from the supernatant via centrifugation and the cell free extract was used immediately in enzyme activity assays.
Enzyme activity assays in the reverse direction (i.e., 6-aminohexanoate to adipate semialdehyde) were performed in a buffer composed of a final concentration of 50 mM HEPES buffer (pH=7.5), 10 mM 6-aminohexanoate, 10 mM pyruvate and 100 μM pyridoxyl 5′ phosphate. Each enzyme activity assay reaction was initiated by adding cell free extract of the ω-transaminase gene product or the empty vector control to the assay buffer containing the 6-aminohexanoate and incubated at 25° C. for 24 h, with shaking at 250 rpm. The formation of L-alanine from pyruvate was quantified via RP-HPLC.

[2] = ω-transaminase enzyme activity assay, forward direction (adipate semialdehyde to 6-aminohexanoate); type: biochemical; settings: cell free extract; 10 mM adipate semialdehyde, 10 mM L-alanine; 25° C., 4 h; against empty vector control (FIG. 18)
Protocol: as §1, §2
Enzyme activity in the forward direction (i.e., adipate semialdehyde to 6-aminohexanoate) was confirmed for the transaminases of SEQ ID NO 7, SEQ ID NO 8, SEQ ID NO 9, SEQ ID NO 10 and SEQ ID NO 12. Enzyme activity assays were performed in a buffer composed of a final concentration of 50 mM HEPES buffer (pH=7.5), 10 mM adipate semialdehyde, 10 mM L-alanine and 100 μM pyridoxyl 5′ phosphate. Each enzyme activity assay reaction was initiated by adding a cell free extract of the ω-transaminase gene product or the empty vector control to the assay buffer containing the adipate semialdehyde and incubated at 25° C. for 4 h, with shaking at 250 rpm. The formation of pyruvate was quantified via RP-HPLC.

Molecule	ω-transaminase activity: acceptance of 6-aminohexanoate as substrate (formation of L-alanine from pyruvate, RP-HPLC) [1]	ω-transaminase activity: acceptance of adipate semialdehyde as substrate (formation of pyruvate, RP-HPLC) [2]
SEQ ID NO 10: Rhodobacter sphaeroides ω-transaminase (Genbank Accession No. ABA81135.1)	accepted 6-aminohexanote as substrate	accepted adipate semialdehyde as substrate
B1	accepted 6-aminohexanote as substrate	accepted adipate semialdehyde as substrate
B2	accepted 6-aminohexanote as substrate	accepted adipate semialdehyde as substrate
B3	accepted 6-aminohexanote as substrate	accepted adipate semialdehyde as substrate
B4		accepted adipate semialdehyde as substrate
